# Source: patent US20050249739A1
# Target: S protein of GD03T on pseudotyped HIV (SARS-CoV (GD03T isolate))
# Test: cell-based or functional assay
substance,measurement,value
80R IgG1 (antibody),S-protein-pseudotyped HIV luciferase infection of ACE2-expressing 293T cells,> 50 µg/mL
